Experimental data as given in patent US20250084169A1.
Read-outs that look alike come from different tables or passages of the source.

Columns and labels:
[1] = biological target: cynomolgus monkey Fc gamma receptor CD64 (cynomolgus monkey)
[2] = biological target: cynomolgus monkey Fc gamma receptor CD64 (cynomolgus monkey); remark: listed apart in the source
[3] = biological target: cynomolgus monkey Fc gamma receptor CD32a (cynomolgus monkey)
[4] = biological target: cynomolgus monkey Fc gamma receptor CD32b (cynomolgus monkey)
[5] = biological target: cynomolgus monkey Fc gamma receptor CD32a (cynomolgus monkey); remark: listed apart in the source

Tafasitamab-cxix (research grade biosimilar) (antibody), sequence (heavy): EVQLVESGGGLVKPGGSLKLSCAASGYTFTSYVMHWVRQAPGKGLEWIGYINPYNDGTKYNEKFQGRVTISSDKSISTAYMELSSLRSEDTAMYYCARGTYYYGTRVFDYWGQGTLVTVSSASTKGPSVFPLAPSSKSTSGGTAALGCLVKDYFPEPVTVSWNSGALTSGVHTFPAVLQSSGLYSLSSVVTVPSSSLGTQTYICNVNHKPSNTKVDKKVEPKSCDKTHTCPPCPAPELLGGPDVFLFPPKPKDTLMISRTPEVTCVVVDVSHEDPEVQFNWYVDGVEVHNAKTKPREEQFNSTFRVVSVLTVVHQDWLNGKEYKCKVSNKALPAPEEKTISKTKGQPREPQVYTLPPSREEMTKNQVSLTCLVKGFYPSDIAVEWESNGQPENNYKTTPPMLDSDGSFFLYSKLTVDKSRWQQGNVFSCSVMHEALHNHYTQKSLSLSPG
Tafasitamab-cxix (research grade biosimilar) (antibody), sequence (light): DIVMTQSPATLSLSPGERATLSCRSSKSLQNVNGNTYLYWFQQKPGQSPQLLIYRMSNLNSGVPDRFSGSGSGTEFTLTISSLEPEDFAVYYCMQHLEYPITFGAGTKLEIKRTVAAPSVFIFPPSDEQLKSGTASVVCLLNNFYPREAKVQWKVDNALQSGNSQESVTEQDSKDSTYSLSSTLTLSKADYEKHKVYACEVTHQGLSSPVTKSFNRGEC

| Kd [1] [nM] | Kd [2] [nM] | Kd [3] [nM] | Kd [4] [nM] | Kd [5] [nM] | Substance |
| --- | --- | --- | --- | --- | --- |
| < 0.02 | 1 | – | – | – | FMC59-S239D/I332E (huFMC63-S239D/I332E) (antibody) |
| < 0.02 | – | 3130 | 1460 | 5940 | Rituximab (antibody) |
| < 0.02 | 1.8 | – | – | – | Tafasitamab-cxix (research grade biosimilar) (antibody) |
